In patent US20070212365A1:

How the values were obtained:
[1] = biological target: synthetic peptide … (antigen from mpf00920 polypeptide); test: ELISA on the antigen; pre-immune serum at 16000-fold dilution
[2] = biological target: synthetic peptide … (antigen from mpf00920 polypeptide); test: ELISA on the antigen; pre-immune serum at 4000-fold dilution
[3] = biological target: synthetic peptide … (antigen from mpf00920 polypeptide); test: ELISA on the antigen; pre-immune serum at 2000-fold dilution
[4] = biological target: synthetic peptide … (antigen from mpf00920 polypeptide); test: ELISA on the antigen; pre-immune serum at 1000-fold dilution
[5] = biological target: synthetic peptide … (antigen from mpf00920 polypeptide); test: ELISA on the antigen; pre-immune serum at 8000-fold dilution

Which absorbance (490 nm) (absorbance (490 nm)) [1] does the source give for “control serum (rabbit serum without immunization)” here?
The absorbance (490 nm) (absorbance (490 nm)) was 0.076.

And the absorbance (490 nm) (absorbance (490 nm)) [2]?
The absorbance (490 nm) (absorbance (490 nm)) was 0.089.

And the absorbance (490 nm) (absorbance (490 nm)) [3]?
Its absorbance (490 nm) (absorbance (490 nm)) is 0.101.

And the absorbance (490 nm) (absorbance (490 nm)) [4]?
Its absorbance (490 nm) (absorbance (490 nm)) is 0.171.

What about the absorbance (490 nm) (absorbance (490 nm)) [5] of the same substance?
Its absorbance (490 nm) (absorbance (490 nm)) is 0.084.
